From patent publication US20230218710A1 (COHBAR, published 2023)
Square brackets hold non-standard residues; d marks the D form. Primed or numbered codes have the meaning given here. Ends that are not written are not given here. PEG12′ = not defined here

T1: Apelin Receptor (APJ) stably overexpressed in CHO-K1 AGTRL1 Gi cells (UniProt P35414 1-380, limits assumed)
T1 sequence (looked up): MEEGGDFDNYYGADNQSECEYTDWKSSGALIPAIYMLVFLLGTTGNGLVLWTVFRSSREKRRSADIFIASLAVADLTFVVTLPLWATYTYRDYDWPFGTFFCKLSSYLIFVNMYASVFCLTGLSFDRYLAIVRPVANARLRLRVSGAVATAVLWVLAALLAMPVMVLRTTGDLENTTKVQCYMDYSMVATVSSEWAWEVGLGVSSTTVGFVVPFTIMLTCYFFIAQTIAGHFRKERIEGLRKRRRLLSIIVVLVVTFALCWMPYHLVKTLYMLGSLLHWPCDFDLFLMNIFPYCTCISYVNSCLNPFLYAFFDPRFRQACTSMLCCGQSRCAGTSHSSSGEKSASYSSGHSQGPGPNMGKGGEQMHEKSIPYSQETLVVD

B1: SEQ ID NO: 50 (peptide)
peptide: RMMGMVF
B2: SEQ ID NO: 36 (peptide)
peptide: KRRMMGMVFQSLCGA
modifications: (PEG12) at the N-terminal K; C-terminal (dA) = D-alanine
B3: SEQ ID NO: 13 (peptide)
peptide: RRMMGMVFQELCG[dA]
B4: SEQ ID NO: 37 (peptide)
peptide: KRRLLGLVFQSLCGA
modifications: (PEG12) at the N-terminal K; C-terminal (dA) = D-alanine
B5: SEQ ID NO: 51 (peptide)
peptide: RMMGMVFQ
B6: SEQ ID NO: 14 (peptide)
peptide: RRMMGMVFQCLEG[dA]
B7: SEQ ID NO: 12 (peptide)
peptide: RRMMGMVEQCLCG[dA]
modifications: cysteine pairing not given here
B8: SEQ ID NO: 46 (peptide)
peptide: MMGMVFQ
B9: SEQ ID NO: 47 (peptide)
peptide: MMGMVFQS
B10: SEQ ID NO: 11 (peptide)
peptide: RRMMGMVAQCLCG[dA]
modifications: cysteine pairing not given here
B11: SEQ ID NO: 42 (peptide)
peptide: [PEG12′]KRRIIGIVFQCLCG[dA]
modifications: cysteine pairing not given here
B12: SEQ ID NO: 49 (peptide)
peptide: MMGMVFQSLCG[dA]
B13: SEQ ID NO: 7 (peptide)
peptide: MRRMMGMVFQCLCGL
B14: SEQ ID NO: 48 (peptide)
peptide: MMGMVFQSL
B15: SEQ ID NO: 15 (peptide)
peptide: RRMMGMVFQSLCG[dA]
modifications: also: acetate salt, HCl salt
B16: SEQ ID NO: 43 (peptide)
peptide: RRIIGIVFQSLCG[dA]

Molecular target: ProLink tagged human APJ (Apelin Receptor) in CHO-K1 AGTRL1 β-Arrestin cells (human, UniProt P35414 1-380)
Experiment: cell-based or functional assay

| Binder | β-Arrestin recruitment, Percent of Apelin-13 Control Activity (10 µM peptide) |
| --- | --- |
| B1 | 0% |
| B2 | 63% |
| B3 | 1% |
| B4 | 12% |
| B5 | 0% |
| B6 | 0% |
| B7 | -1% |
| B8 | 0% |
| B9 | 1% |
| B10 | 0% |
| B11 | 8% |
| B12 | 1% |
| B13 | 91% |
| B14 | 1% |
| B15 | 40% |

Molecular target: T1, Apelin Receptor (APJ) stably …
Experiment: cell-based or functional assay

| Binder | inhibition of forskolin-induced cAMP, Percent of Pyr-Apelin-13 Control Activity (10 µM peptide) |
| --- | --- |
| B1 | 8% |
| B2 | 101% |
| B3 | 49% |
| B4 | 53% |
| B5 | 24% |
| B6 | 39% |
| B7 | 24% |
| B8 | 11% |
| B9 | -6% |
| B10 | 49% |
| B11 | 33% |
| B12 | 14% |
| B13 | 109% |
| B14 | 15% |
| B15 | 105% |

Molecular target: T1, Apelin Receptor (APJ) stably …
Experiment: cell-based or functional assay
Remark: another data set of the same source

| Binder | IC50 (M), inhibition of forskolin-stimulated cAMP accumulation |
| --- | --- |
| B2 | 1.6e-06 M |
| B4 | 2.5e-06 M |
| B16 | 2.07e-06 M |
| B11 | 4.38e-06 M |
| B13 | 1.24e-06 M |
| B15 | 4.49e-06 M |
